Results published in patent US20240287501A1 (VIB VZW, published 2024).

What was measured:
GFP-tagged PGI1 = target: T1, GFP-tagged PGI1 (Saccharomyces cerevisiae, UniProt P12709 2-554); assay: co-immunoprecipitation, Nb coupled to NHS-agarose beads, lysate of the yeast strain expressing the GFP-tagged target, SDS-PAGE
T1 construct: Yeast GFP Fusion Collection strain; 88 kDa band; also called GFP-PGI1; Yeast GFP fusion collection GFP(+)12, H11; not shown: GFP tag
Procedure: (§1) Each PGI1-specific Nanobody was covalently linked to NHS-agarose beads. The beads that were functionalized with these PGI1-specific Nanobodies were incubated for an hour at 4° C. on a rotating device with either an EBY100 lysate or the lysate of the engineered Yeast strain expressing PGI1 (Yeast GFP fusion collection reference: GFP(+)12, H11) as a GFP-tagged protein. After washing, these beads analyzed on SDS-PAGE (FIG. 14A). Separated proteins were transferred to a PVDF membrane and the Western blot was developed with a GFP-specific antibody to confirm the presence of GFP-tagged PGI1 (FIG. 14B). 55=Nb clone CA17455 corresponding to SEQ ID NO: 15, used as trapper/stripper for PGI1, serves as a positive control.
(§2) Individual clones were isolated from the enriched sub-library by plating tenfold serial dilutions of the overnight-grown phage-infected E. coli TG1 cells in LB. 96 individual clones were picked and grown in a 96-well plate containing LB supplemented with 100 μg/mL ampicillin. Plasmids containing the Nanobody encoding genes were purified, sequenced and grouped into sequence families (Material and methods). A representative member of each sequence family was selected. Six different PGI1 specific Nanobodies, derived from four different sequence families (Nb clone CA17791 corresponding to SEQ ID NO: 46, CA17792-SEQ ID NO:47, CA17793-SEQ ID NO:48, CA17794-SEQ ID NO:49, CA17795-SEQ ID NO:50, and CA17796-SEQ ID NO:51) were selected based on their CDR3 sequences. Their encoding plasmid was transformed into the E. coli WK6 expression strain to express and purify each Nanobody of interest. The specificity of the PGI1-specific Nanobodies was confirmed by linking separate Nanobodies on NHS-agarose beads for co-immunoprecipitation assays. The beads that were functionalized with these PGI1-specific Nanobodies and incubated for an hour at 4° C. on a rotating device with either an EBY100 lysate expressing native (un-tagged) PGI1 or the lysate of the engineered yeast strain (GFP(+)12, H11) expressing PGI1 as a GFP-tagged protein. After washing, these beads were resuspended in SDS-PAGE loading dye and analyzed on SDS-PAGE (FIG. 14A). Separated proteins were also transferred to PVDF membranes and the Western blot was developed with a GFP-specific antibody to confirm the presence of the GFP-tagged PGI1 (FIG. 14B).

[1] = target: T2, PGI1 (native, un-tagged, from EBY100 lysate) (Saccharomyces cerevisiae, UniProt P12709 2-554); assay: co-immunoprecipitation, Nb coupled to NHS-agarose beads, EBY100 yeast lysate (native target), SDS-PAGE
T2 construct: mature; Endogenous untagged protein, 61 kDa band; also called YBR196C; endogenous PGI1
Procedure: as §1, §2

GFP protein = target: T3, GFP protein (Aequorea victoria (Water jellyfish) …, UniProt P42212 1-238 = GFP, biotinylated with the EZ-Link sulfo-NHS-LC-biotinylation kit for the BLI assay; unmodified in the NANEX selections); assay: BLI (Octet), biotinylated GFP on streptavidin sensors saturated with CA12760, second step CA12760 + 2nd Nb
T3 construct: Purified GFP; also called wild type GFP; biotinylated GFP
Procedure: The binding properties of the newly discovered GFP-specific Nanobodies were analysed by a Bio-layer interferometry (BLI) on an OctetRed (molecular devices). Streptavidin-coated Octet® biosensors were used to capture biotinylated GFP (100 nM). Next, the picomolar GFP stripper (CA12760; SEQ ID NO:1) was allowed to bind to GFP until a plateau was reached. These CA12760-saturated biosensors were next incubated separately in solutions containing each newly discovered Nb (as indicated in the legend of the figure), supplemented with CA12760 Nb. Assays were performed in HEPES 25 mM pH 7.5, NaCl 150 mM supplemented with BSA 0.1% and Tween₂₀ 0.005% at room temperature.
Epitope analysis. […] For this we loaded the Streptavidin biosensor with biotinylated GFP, next we allowed CA12760 (SEQ ID NO:1), the GFP-stripper with picomolar affinity, to bind to GFP. After washing, this biosensor loaded with the GFP-CA12760 complex was incubated with the newly discovered Nbs.
Epitope mapping of GFP Nanobodies by Bio-layer interferometry (BLI). Streptavidin-coated Octet® biosensors were used to capture biotinylated GFP (100 nM). Unbound biotinylated GFP is washed off from biosensor by two washing steps (60 seconds in buffer). Next, Streptavidin-coated Octet® biosensors with GFP were first incubated for 400 seconds with 20 nM CA12760, the GFP stripper, washed briefly, followed by an incubation of 400 seconds in a premix of 20 nM CA12760 with the different Nbs to be tested. Data were analyzed on an OctetRed (molecular devices). All assays were performed in HEPES 25 mM pH 7.5, NaCl 150 mM supplemented with BSA 0.1% and Tween₂₀ 0.005% at room temperature.

GFP-tagged SSA1 = target: T4, GFP-tagged SSA1 (Saccharomyces cerevisiae, UniProt P10591 2-642); assay: co-immunoprecipitation, Nb coupled to NHS-agarose beads, lysate of the yeast strain expressing the GFP-tagged target, Western blot anti-GFP
T4 construct: Yeast GFP Fusion Collection strain; also called Yeast GFP fusion collection GFP(+)10, E4; not shown: GFP tag
Procedure: Six SSA1-specific Nanobodies (60=Nb clone CA17560 corresponding to SEQ ID NO: 19, 61=CA17561-SEQ ID NO: 20, 62=CA17562-SEQ ID NO: 21, 63=CA17563-SEQ ID NO: 22, 64=CA17564-SEQ ID NO: 23, 65=CA17565-SEQ ID NO: 24) were characterized by co-immunoprecipitation assays. Each SSA1-specific Nanobodies was covalently linked to NHS-agarose beads. The beads that were functionalized with these SSA1-specific Nanobodies were incubated for an hour at 4° C. on a rotating device with either an EBY100 lysate or the lysate of the engineered Yeast strain expressing SSA1 (Yeast GFP fusion collection reference: GFP(+)10, E4) as a GFP-tagged protein. After washing, these beads were resuspended in SDS-PAGE loading dye and analyzed on SDS-PAGE (FIG. 6A). Separated proteins were transferred to a PVDF membrane and the Western blot (FIG. 6B) was developed with GFP-specific antibody to confirm the presence of GFP-tagged SSA1.

[2] = target: T5, SSA1 (native, from EBY100 lysate) (Saccharomyces cerevisiae, UniProt P10591 2-642); assay: co-IP, Nb on NHS-agarose beads, EBY100 yeast lysate, SDS-PAGE
T5 construct: mature; Endogenous untagged protein; also called YAL005C
T5 sequence (P10591 2-642): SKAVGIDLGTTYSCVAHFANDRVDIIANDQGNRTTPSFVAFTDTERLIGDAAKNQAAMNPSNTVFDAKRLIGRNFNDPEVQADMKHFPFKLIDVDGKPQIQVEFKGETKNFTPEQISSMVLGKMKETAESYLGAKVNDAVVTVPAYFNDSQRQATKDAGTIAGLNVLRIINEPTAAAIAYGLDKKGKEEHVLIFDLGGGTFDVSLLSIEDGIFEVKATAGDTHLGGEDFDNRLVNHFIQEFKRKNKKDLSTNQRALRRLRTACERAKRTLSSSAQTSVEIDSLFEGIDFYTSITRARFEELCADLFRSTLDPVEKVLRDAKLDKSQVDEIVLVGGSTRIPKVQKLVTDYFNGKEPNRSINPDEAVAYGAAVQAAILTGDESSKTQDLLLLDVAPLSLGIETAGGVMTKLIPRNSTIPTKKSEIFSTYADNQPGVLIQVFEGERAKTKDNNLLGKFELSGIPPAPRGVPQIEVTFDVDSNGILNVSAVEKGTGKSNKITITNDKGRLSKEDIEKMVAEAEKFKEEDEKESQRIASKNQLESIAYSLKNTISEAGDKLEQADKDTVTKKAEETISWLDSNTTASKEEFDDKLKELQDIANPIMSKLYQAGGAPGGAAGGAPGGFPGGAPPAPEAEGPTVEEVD

T2 sequence (P12709 2-554): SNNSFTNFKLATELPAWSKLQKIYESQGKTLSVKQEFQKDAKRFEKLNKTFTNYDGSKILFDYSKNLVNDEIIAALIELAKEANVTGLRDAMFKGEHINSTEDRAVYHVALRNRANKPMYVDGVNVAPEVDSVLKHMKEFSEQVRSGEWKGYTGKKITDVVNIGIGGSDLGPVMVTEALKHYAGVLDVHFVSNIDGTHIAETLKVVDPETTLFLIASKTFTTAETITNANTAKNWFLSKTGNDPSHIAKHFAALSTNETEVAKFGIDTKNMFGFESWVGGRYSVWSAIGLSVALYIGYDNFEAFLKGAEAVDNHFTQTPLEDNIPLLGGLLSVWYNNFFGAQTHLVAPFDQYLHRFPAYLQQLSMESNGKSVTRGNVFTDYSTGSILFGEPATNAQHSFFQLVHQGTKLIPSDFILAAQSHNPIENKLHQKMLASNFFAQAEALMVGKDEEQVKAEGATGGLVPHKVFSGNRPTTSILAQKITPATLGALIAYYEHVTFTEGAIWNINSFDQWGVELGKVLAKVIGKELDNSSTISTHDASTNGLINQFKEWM
T1 sequence (P12709 2-554): as above
T4 sequence (P10591 2-642): as the sequence (P10591 2-642) above

Binder | binding result (GFP-tagged PGI1) | binding result [1] | binding result (GFP protein) | further results
CA17795 (VHH, C-terminal 6xHis-EPEA tag is part of the entry) VHH: QVQLVESGGGLVQPGGSLRLSCAASGSFFNINAMAWYRQAPGKQRELVAVIASSGRTNYADSVSGRFTISRDNAKNTVYLQMNSLKPEDTAVYYCNSKIRQASWNLVLSDHWGQGTQVTVSS | binds | binds |  | 
CA17520 (VHH, C-terminal 6xHis-EPEA tag is part of the entry) VHH: QVQLVESGGGLVQTGGSLRLSCAASVRTFSNYIMGWFRQAPGKEREFVATISWSGINTYYADNVKGRFTISRDNARNTVYLQMNSLKPEDTAIYYCAAKSAVGYYHDSYASRAEEYDYWGQGTQVTVSS |  |  | binds | 
CA17794 (VHH, C-terminal 6xHis-EPEA tag is part of the entry) VHH: QVQLVESGGGLVQPGGSLRLSCTASGVTFSRYAMSWYRQAPGKERELVATITGAGSSTNYEDSVKGRFTISRDNAKNTVYLQMNSLKPEDTAVYYCYADHYGLGYLDYWGQGTQVTVSS | binds | binds |  | 
CA17517 (VHH, C-terminal 6xHis-EPEA tag is part of the entry) VHH: QVQLVESGGGLVQPGGSLRLSCAASGRTFSNYIMGWFRQPPGKEREFVATISWSGSDTVYASSVKGRFTISRDNAKSTVYLQMNSLKPEDTAIYYCAAKDAVGYWSSDVYSEAKEYDYWGQGTQVTVSS |  |  | binds | 
CA17674 (VHH, C-terminal 6xHis-EPEA tag is part of the entry) VHH: QVQLVESGGGLVQPGDFLRLSCAASDRTFSNYIMGWFRQAPGKEREFVATISWSGSDTVYASSVKGRFTISRDNAKSTVYLKMNSLKPEDTAIYYCAAKYAVGYWGNDVASEAKDYNYWGQGTQVTVSS |  |  | binds | 
CA17791 (VHH, C-terminal 6xHis-EPEA tag is part of the entry) VHH: QVQLVESGGGLVQPGGSLRLSCAASGITFSSYAMGWYRQAPGKERELVARITSGGSTDYAVSVKGRFTISRDNANNLVYLQMNSLNSEDTAVYYCHSQYSYGPLEYWGQGTQVTVSS | binds | binds |  | 
CA17796 (VHH, C-terminal 6xHis-EPEA tag is part of the entry) VHH: QVQLVESGGGLVQPGGSLRLSCAASGISFHSYAMGWYRQAPGKQRELVSTITTGGSTDYAVSVKGRFTISRDNAKNTVYLQMNNLNSEDTAVYYCHSQYAYGPLEYWGQGTQVTVSS | binds | binds |  | 
CA8780 (VHH, Control Nanobody; C-terminal 6xHis-EPEA tag is part of the entry; also called irrelevant Nb) VHH: QVQLQESGGGLVQPGGSLRLSCAPSGPFSPNSMGWYRQAPGKQRELVAVMTIDGRTNYQDSVKGRFTISRDYVKNTAYLQMNNLKPDDTAVYICNAETRGFMHWGQGTQVTVSS |  |  | no binding | 
CA17518 (VHH, C-terminal 6xHis-EPEA tag is part of the entry) VHH: QVQLVESGGGLVQAGGSLRLSCVTSGFTFDDYAIGWFRQAPGKEREGVSSISSSDGTTYYADSVKGRFTISSDNAKNTVYLQMNNLKPEDTAVYYCAADWAAWPSIRVGVGVPAYEYDYWGQGTQVTVSS |  |  | binds | 
CA17675 (VHH, C-terminal 6xHis-EPEA tag is part of the entry) VHH: QVQLVESGGKLVPAGDSLRLSCAASGRTFSDYIIGWFRQVSGKERKFVAAIRRSDGETVYTDSVKGRFTISRDNAKNTVYLQMNSLKPEDTAVYYCYLNNRNSRGSMDAYWGQGTQVTVSS |  |  | binds | 
CA17562 (VHH, C-terminal 6xHis-EPEA tag is part of the entry) VHH: QVQLVESGGGLVQPGGSLRLSCAASGFDFSRNRLNWHRQAPGKQRELVATIGSNGPRYADSVKDRFTISRDNEKNTVYLEMNSVKPEDTAVYYCAARGYWGQGTQVTVSS |  |  |  | binding result (GFP-tagged SSA1): binds; binding result [2]: binds
CA17563 (VHH, C-terminal 6xHis-EPEA tag is part of the entry) VHH: QVQLVESGGGTVQAGDSLRLSCSASGRALTPYTMAWFRQPPGKERELVAAIGRTGSGTRYAEAVKDRFTISRDNDKQELYLQMNSLKPEDTAVYYCAANRRLTTSLEYDYWGQGTQVTVSS |  |  |  | binding result (GFP-tagged SSA1): binds; binding result [2]: binds
CA17793 (VHH, C-terminal 6xHis-EPEA tag is part of the entry) VHH: QVQLVESGGGLVRPGGSLRLSCAASGITFSSYTMGWYRQAPGKQRELVATITTGGSTNYAVSAKGRFTISRDNANNRVTLQMNSLNSEDTAAYYCHSRFAYGPLEYWGQGTQVTVSS | binds | binds |  | 
CA17676 (VHH, C-terminal 6xHis-EPEA tag is part of the entry) VHH: QVQLVESGGGLVQAGGSLRLSCAGSGGTFSAYTMGWFRQGLGEERELVACISRSGASTFYTDPVKGRFTISRDNDKNTVYLQMNNLKPEDTAVYYCAADWTVIDEITEQRSKHQTSYDYWGQGTQVTVSS |  |  | binds | 
CA17673 (VHH, C-terminal 6xHis-EPEA tag is part of the entry) VHH: QVQLVESGGGLVQAGGSLRLSCAASARAFMNYIMGWFRQAPGKEREFVATISWSGVTTDYADNVKGRFTISRDNAKNTVSLQMNSLKPEDTAIYYCAAKSAVGYYSDIYNSRAKEYDYWGQGTQVTVSS |  |  | binds | 
CA17519 (VHH, C-terminal 6xHis-EPEA tag is part of the entry) VHH: QVQLVESGGGLVQPGGSLRLSCAASGRIFSIYVMGWYRQAPGKQRELVAQITNSGRTKFADSVKGRFTISRDNAKNMVYLQMNSLKAEDTAVYYCYADLDWYGGTANNDFWGQGTQVTVSS |  |  | binds | 
CA17792 (VHH, C-terminal 6xHis-EPEA tag is part of the entry) VHH: QVQLVESGGGLVQPGGSLRLSCAASGISFGSYTMAWYRQAPGKQRDMVADITTGGRTNYADSVKGRFTISRDNAKNTVYLQMNSLKSEDTAVYYCKADFAYGRDLTYWGQGTQVTVSS | binds | binds |  | 
